Assay: soluble on expression in E. coli; label from the status in PepcDB or PDB records

Sequence	soluble on expression in E. coli
MKALLLLVLPWLSPANYIDNVGNLHFLYSELCKGASHYGLTKDRKRRSQDGCPDGCASLTATAPSPEVSAAATISLMTDEPGLDNPAYVSSAEDGQPAISPVDSGRSNRTRARPFERSTIRSRSFKKINRALSVLRRTKSGSAVANHADQGRENSENTTAPEVFPRLYHLIPDGEITSIKINRVDPSESLSIRLVGGSETPLVHIIIQHIYRDGVIARDGRLLPGDIILKVNGMDISNVPHNYAVRLLRQPCQVLWLTVMREQKFRSRNNGQAPDAYRPRDDSFHVILNKSSPEEQLGIKLVRKVDEPGVFIFNVLDGGVAYRHGQLEENDRVLAINGHDLRYGSPESAAHLIQASERRVHLVVSRQVRQRSPDIFQEAGWNSNGSWSPGPGERSNTPKPLHPTITCHEKVVNIQKDPGESLGMTVAGGASHREWDLPIYVISVEPGGVISRDGRIKTGDILLNVDGVELTEVSRSEAVALLKRTSSSIVLKALEVKEYEPQEDCSSPAALDSNHNMAPPSDWSPSWVMWLELPRCLYNCKDIVLRRNTAGSLGFCIVGGYEEYNGNKPFFIKSIVEGTPAYNDGRIRCGDILLAVNGRSTSGMIHACLARLLKELKGRITLTIVSWPGTFL	soluble
PKEQSMKIVVIGGTGLIGSNVVNRLRRDGHETVAASPGTGVNTITGEGLAQALDGAQVVVDVANSPSFEDQAVMAFFETSGRTLLAAEAAAGVTHHLALSVVGTDRLADSGYFRAKVAQEALIKASKVPYTILRATQFFE	not soluble
MEVKKVLVSAFLLTTCLMSGQAQRRNEIQVPDLDGYTTLKCDFHMHSVFSDGLVWPTVRVDEAYRDGLDAISLTEHIEYRPHKQDVVSDHNRSFDLCREQAEKLGILLIKGSEITRAMAPGHFNAIFLSDSNPLEQKDYKDAFREAKKQGAFMFWNHPGWDSQQPDTTKWWPEHTALYQEGCMHGIEVANGHLYMPEAIQWCLDKNLTMIGTSDIHQPIQTDYDFEKGEHRTMTFVFAKERSLQGIREALDNRRTAAYFHELLIGREDLLRPFFEKCVKIEEVSRNEQGVTLSITNVTDLVLKLKKTAHDTLLVYFRDMTLKPHTRYTVRIGFKQGIKGGDVNFEVTNFIVAPDKGLKYTISL	not soluble
GAEVDQATKPAEAKYYIAGTITDATTGQELTTAKVTLGDKSVTSSFNEQVNYKAEGYALVVSADGYYPVKRQVYLNQVSDGQTSVATVNVALVSVEAAVIPPVVPPTDPETDINEGEATKVADKAVEVAKPSESTVTDMLAGTTATPEEKKALDETLEMAGGMKVGETTPEVLADGSILAITPVKFTNPIQDAPAMVPYFYNEGCELTGDVKEVAAPVTRADGAVAADIQKAFLSNAAKALNMNAGFVQKIGYTRISVLNGYSILGYTIKGQLVSKKLTFLISGKYYEGIVSYQKSVMIYPNYYSHDSHDSHDSHGFNPNAGGGSND	soluble
MGSDKIHHHHHHENLYFQGMTKAIQSSVQVGELATGQALTVPIYSFMGSENSAPSVYIQANVHGAEVQGNAVIYQLMTLLEGYQVLGDITLAPLANPLGINQKSGEFTLGRFDPITGVNWNREYFDHNVDIQNWYAEHQHLTNSELFCAYRSMLVETCQARLTHSFGISTGHRLAVNLQAMAHQADIVLDLHTGPKSCKHLYCPEYDIDAARFFSIPYTLIIPNSFGGAMDEATFCPWWQLTEYATSQGREFSVPVSAFTLELASQERIDLADALEDAKGILAYLSHRGVIAEKVNPASMERFGCYLKDYKKFHAPKAGLIEYCASVGEPLTAGKPLVNILRIDLYGSEQAYQAISLPMDCVPILHFASASVLQGTELYKVMTNVFPLQPS	soluble
MLNKVFIIGRLTGDPVITYLPSGTPVVEFTLAYNRRYKNQNGEFQEESHFFDVKAYGKMAEDWATRFSKGYLVLVEGRLSQEKWEKEGKKFSKVRIIAENVRLINRPKGAELQAEEEEEVPPIEEEIEKLGKEEEKPFTDEEDEIPF	soluble
MGSDKIHHHHHHMKISERQKDLLKEIGNIGAGNAATAISYMINKKVEISVPNVEIVPISKVIFIAKDPEEIVVGVKMPVTGDIEGSVLLIMGTTVVKKILEILTGRAPDNLLNLDEFSASALREIGNIMCGTYVSALADFLGFKIDTLPPQLVIDMISAIFAEASIEELEDNSEDQIVFVETLLKVEEEEEPLTSYMMMIPKPGYLVKIFERMGIQE	not soluble
MAHHHHHHMVATITFKLRSSNHVGIIEVPHRVISCREIKEAIAEKLSGSPDEIDIFVSGSSDYLHPNDELPAYTVVEVVRHVGTGRPPPKREREPVGPSNLSSAMSHAAVRAGNKNGDTATPLTEEERLAQLSEAVAVETGIDEVGAWRMRQMRNRSAAMGGGGREVTFRPPPPGYICHNCGKRGHLIQHCPAAKGVRGVKLLSLPTGIPETMLVECTMDDPAAKFVTRDGRLVKRKLDNASFVGIVTTSNADGVKPDFPSEGGNNRNDSPNSEKLETPDAGGDAAAKPQFLCAWDSVIVKNAMKAPCCGALFCETCLNERVEEAISRADASEIPLLCPGCEEPLDVPDVVEATEERKLVEALRSGKRARD	not soluble
MGSDKIHHHHHHMEPIIEIENFSAYYGEKIAVKNVTMKIFKNQITAIIGPSGCGKTTLLRSINRMNDHLPGFRVEGKIYFKGQDIYDPQLDVTEYRKRVGMVFQKPTPFPMSIYDNVAFGPRIHGVKSKHILDRIVEESLKKAALWDEVKSELNKSGTRLSGGQQQRLCIARALAVEPEVILLDEPTSALDPIATQRIEKLLEELSENYTIVIVTHNIGQAIRIADYIAFMYRGELIEYGPTREIVERPKNRLTEEYLTGKIG	not soluble
MAELHIIGQIIGATGFPQNSLFCKWGVHTGGAWRLLSGLREGQTQVDMPQTGDMAYWSHPIDLHYTTKGLQGWPKLHLQVWHQDSFGRCQLYGYGYIHVPSSPGQHRLQCVTWRPLGSWQDQLSEMFVGGGPQLRSPDLIYSGADRYRLHTVGMGTVELELCIILRHFDRYGVES	not soluble
MSLGMAAWDRNSINPLQAYVYKTSKLPFYDENLHNLAEKIAPHCLLAHLRGVSYHDKQVVTDQNVHPFLYPVTSIALAHNGMLHNFETMRYDLLKYVKTEYRKYIKGTTDSEWIYAVFLSQLENPKGHFDASEIINAVIATLKILKTVRQQNNIVINSPVNLFLTNGDFIAATRFCLDYGWKPKDATQSTHFTYHSLWYTYGERYGFYENEYKMKGGTINSSIIIASEPLTENTTTWLEVPEYTLIFANQVDGEIKITSQDINEGHHHHHH	not soluble
MGSDKIHHHHHHMFTQVYEEIRQLTISKVLDFYDHEVRRLDEAARQTKYQKMSASPFLFFRGSSHLFYYDVTRIPLGFDTPPETPTWIQGDLHFENFGVHGNAKGEIIYDVNDFDEGYLGSYLYDLIRMAVSVQLFAEEAGYDAKPAIAAYVQHYLDDLRQYAKGKNPSKVCFTTDNTKGPIRKLIKKAEKKKAELLGERTTVVDGQRRFADLPDMKRLDSSAYTAIEAVWPEYIASIDAEDRQEDGFYAIKDIVYKLDSGTASIGLERYYILVEGTGGEHEDLILEMKQAQSSVPSLFVPAYLQEVETVHQGRRIVTSQKAMQAHEDPYLGYVTMHGKEYYVRERSPYKKKLKAKHIKSQDDLENVLSIQGQITAKIHARADMDAGVDVDILHHHADVVIIESIGVSDAEFIRQIQRWSSAYAARTTLDFQVFLSWLANR	not soluble
SGSQAGSFRKASPQTPNIDENEKRIKRLEKLKRDLQNIKNERGILQGILAKYKDLNDRTNFETFMLEMQHNQMMTDLKRMSQDISEALYKCQHLTKENQLYCCRNCHLLIESNLIQHKVRMLWKENRQLLRKQIALEECNIKTKILCKEGSQKIKDEYSRQAAGKQIIVVPGSKEEAAMSNPCA	soluble
MTTATSTEPTLELQRLELAELINRHAGEPFGPASAIDDLYLVRYTENVRSVPTLAQPALCILAQGSKSLFLGDEQYAYDPLHYMVVSVTLPLSAVRLDASPENPSLGLRMDLDPAEISQLIAESGPMLVPNRPSGRGLYVERTDAALLDALLRLLRLLDTPRDIAMLAPLFRREILYRLLRGPQGYRLYEIALANSQTHRVCQAITWLNNNFQQPLRIEDLAREVNLSTSTLHHRFKAVTSMSPLQYQKQLRLQEARRLMLNDGLEAAVAAYRVGYESPSQFSREYSRLYGAPPIRDVARLRATAV	not soluble
